According to patent US5200320A, “Method for identifying useful polypeptide vaccines” (National Jewish Center for Immunology and Respiratory …, priority 1987, dated 1993):
Ends that are not written are not given here.

biological target: T1, IA^d (Mus musculus, UniProt P01921+P04228); test: Inhibition of binding of 125I-radiolabelled Ova 323-339 to purified IA^d (gel filtration competition assay); settings: Table 7, good binders; concentration of the indicated polypeptide
T1 sequence (P04228 24-256): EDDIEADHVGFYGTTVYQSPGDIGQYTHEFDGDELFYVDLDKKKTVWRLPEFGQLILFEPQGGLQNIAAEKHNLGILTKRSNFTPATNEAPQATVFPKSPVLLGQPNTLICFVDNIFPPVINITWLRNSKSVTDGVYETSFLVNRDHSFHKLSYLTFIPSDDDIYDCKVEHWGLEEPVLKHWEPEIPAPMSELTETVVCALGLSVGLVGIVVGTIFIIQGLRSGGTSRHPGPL
T1 sequence (P01921 28-265): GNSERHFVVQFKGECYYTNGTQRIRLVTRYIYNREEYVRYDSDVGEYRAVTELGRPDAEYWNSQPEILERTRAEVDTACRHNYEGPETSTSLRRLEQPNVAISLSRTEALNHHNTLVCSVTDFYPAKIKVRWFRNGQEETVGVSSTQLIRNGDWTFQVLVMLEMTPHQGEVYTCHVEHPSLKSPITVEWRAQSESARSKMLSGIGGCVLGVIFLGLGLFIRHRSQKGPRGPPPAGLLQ
From the text: The following examples will illustrate the method of the present invention. First, a critical binding segment of a first polypeptide that binds to a first type of MHC, was ascertained. […] This was accomplished by the method described in Sette, et al, Nature, Vol. […] No. 6129, pp. 395-399, Jul. 30, 1987, the entirety of which is incorporated herein by reference. […] For convenience, Table I of that paper illustrating the foregoing procedure, is attached as Table 2.
The effect which the substitutions indicated by an "X" in Table III, had on the binding strength of the critical binding segment listed at the top of attached Table 4, was quantitatively calculated, and a numerical designation assigned to the substituting amino acid based upon the degree of that effect. The foregoing assigned numerical designations for each "X" position indicated in Table 3, is listed at corresponding positions in Table 4. The quantitative evaluations of the binding strength were made using a competition assay as described in Sette, et al, supra, and the numerals assigned according to the decrease in the binding activity as follows:
The value of "binding" listed in Tables 6 and 7, is in micromolar concentration of the indicated polypeptide. The assay used was the same as that in Sette et al, supra, for quatitative estimation of Ia peptide interaction.
In particular, as pointed out in Sette et al., supra, T-cell recognition is much less permissive than MHC recognition. […] However, as one would expect, when the binding strength of a polypeptide to an MHC types of an individual animal is poor, little or no immunogenic response would result. However, if a polypeptide is a good binder, as ascertained by the above method, then immunogenicity would be expected to be a possibility. […] Binding to a class II MHC type IA^d and IE^d (d strain of mouse) was evaluated using the same assay technique as used to evaluate the binding for the polypeptides in Tables 6 and 7 above.

Point of comparison: FISEAIIHVLHSR [Myo 106-118], IC50 20 µM. Against it:
- AHRVQLGPRSLQVLLIP [JF 39] — within 1.5-fold, 25 µM
- HNTNGVTAACSHE [Ha 130-142] — 2.2-fold lower, 9 µM
- SAESLKISQAV [Ova Site II] — 4-fold lower, 5 µM

For APYTSTLLAPELSETP [HSVD 245-260], the “BINDING (M)” value was 22/2.

biological target: T1, IA^d; test: not given; settings: amount of unlabelled Ova 323-339 divided by amount of truncated peptide needed to inhibit binding of 125I Ova 323-339 to IA^d by 50%; averages of 2-4 experiments; cited from earlier work

For “Ova peptide 323-331: C-terminal truncation of Ova 323-339, ending in H (KISQAVHAA; UniProt P01012 323-331, looked up, fragment)”, the “Relative I-A^d binding capacity” value is given as less than 0.005.
In the case of “Ova peptide 329-339: N-terminal truncation of Ova 323-339, starting with A (HAAHAEINEAG; UniProt P01012 329-339, looked up, fragment)”, the “Relative I-A^d binding capacity” value is listed as less than 0.005.

Point of comparison: “Ova peptide 327-339: N-terminal truncation of Ova 323-339, starting with V (AVHAAHAEINEAG; UniProt P01012 327-339, looked up, fragment)”, “Relative I-A^d binding capacity” value 0.3. Against it:
- Ova peptide 323-332: C-terminal truncation of Ova 323-339, ending in A (KISQAVHAAH; UniProt P01012 323-332, looked up, fragment) — lower, 0.2
- Ova peptide 323-333: C-terminal truncation of Ova 323-339, ending in E (KISQAVHAAHA; UniProt P01012 323-333, looked up, fragment) — higher, 0.6
- Ova peptide 323-335: C-terminal truncation of Ova 323-339, ending in N (KISQAVHAAHAEI; UniProt P01012 323-335, looked up, fragment) — higher, 1.0
- Ova peptide 323-336: C-terminal truncation of Ova 323-339, ending in E (KISQAVHAAHAEIN; UniProt P01012 323-336, looked up, fragment) — higher, 1.1
- Ova peptide 325-339: N-terminal truncation of Ova 323-339, starting with Q (SQAVHAAHAEINEAG; UniProt P01012 325-339, looked up, fragment) — higher, 1.1
- Ova peptide 326-339: N-terminal truncation of Ova 323-339, starting with A (QAVHAAHAEINEAG; UniProt P01012 326-339, looked up, fragment) — higher, 0.5
- Ova peptide 328-339: N-terminal truncation of Ova 323-339, starting with H (VHAAHAEINEAG; UniProt P01012 328-339, looked up, fragment) — lower, 0.014
